Measured values published in patent publication US20050215478A1, “Amino acid sequences capable of facilitating penetration across a biological barrier” (priority 2002, published 2005).
Values joined by “and” are separate entries in the source; they are usually repeats but may differ in a detail not shown here. Equal values may be shown once.

Experiment: Formulation development: recovery of ^125I-IBW-002 after intestine loop injection, urine included (Example 2)
Assay type: in vivo, mouse
Conditions: intestinal loop; for recovered cpm/mouse: blood 60′, organs and urine; for blood 15′, total cpm in the blood / blood 30′, total cpm in the blood / blood 60′, total cpm in the blood / blood 5′, total cpm in the blood / blood 10′, total cpm in the blood / blood 20′, total cpm in the blood: calculated from 50 μl sample assuming 2 ml blood
Method: The mice were anesthetized by i.p. injection of 0.05 ml of a mixture of 0.15 ml xylazine+0.85 ml of ketamin. A 2 cm long incision was made along the center of the abdomen, through the skin and abdominal wall. An intestine loop was gently pulled out through the incision and placed on wet gauze beside the animal. The loop remained intact through the entire procedure and was kept wet during the whole time. The tested compound was injected into the loop, 0.2 ml/ mouse, containing around 200,000 cpm, using a 26G needle. […] The animals were subsequently sacrificed. The following organs were removed: epididymal fat, kidneys, liver, lungs and brain. Radioactivity in each organ and in blood samples was counted. A 5 μl sample of the injected solution was counted to determine the total injected cpm per mouse.
To reach an improved formulation, a number of compounds were tested in experiments similar to that described in Example 1, with the following change: urine was collected and the measured radioactivity was added to that of the recovered tissues. […]
The total radioactive labeling injected per mouse was 195,900 cpm. Total cpm in the blood was calculated based on the 50 μl blood sample drawn out at different time points post injection, in the assumption that total blood volume of each mouse is 2 ml.
The total radioactive labeling injected per mouse was 143,000 cpm. Total cpm in the blood was calculated based on the 50 μl blood sample drawn out at different time points post injection, in the assumption that total blood volume of each mouse is 2 ml.

[1] = Table 5 formulation (PE 6,200), 125,320 cpm injected per mouse, individual mice, listed as 125I-IBW-002
[2] = Table 5 formulation (PE 6,200), 125,320 cpm injected per mouse, mean of 2 mice
[3] = Table 8 formulation (PE 6,200 + Taurodeoxycholic acid), 195,900 cpm injected per mouse, individual mice, listed as 125I-IBW-002
[4] = Table 8 formulation (PE 6,200 + Taurodeoxycholic acid), 195,900 cpm injected per mouse, mean of 4 mice
[5] = Table 11 formulation (Pluronic F-68 + Taurodeoxycholic acid), 143,000 cpm injected per mouse, individual mice, listed as 125I-IBW-002
[6] = Table 11 formulation (Pluronic F-68 + Taurodeoxycholic acid), 143,000 cpm injected per mouse, mean of 4 mice

Ac-NYYDITLALAGICQSARLVQQLAGGGKGGK-NH2 (Ac-NYYDITLALAGICQSARLVQQLAGGGKGGK-NH2; also: 125I label) [IBW-002, ^125I-labeled using the Bolton Hunter Reagent for in vivo tests]
recovered cpm/mouse [1]: 35,759 cpm and 40,067 cpm
recovered cpm/mouse [2]: 37,913 cpm
blood 15′, total cpm in the blood [1]: 19,920 cpm and 19,560 cpm
blood 30′, total cpm in the blood [1]: 18,800 cpm and 15,880 cpm
blood 60′, total cpm in the blood [1]: 14,560 cpm and 10,960 cpm
blood 15′, total cpm in the blood [2]: 19,740 cpm
blood 30′, total cpm in the blood [2]: 17,340 cpm
blood 60′, total cpm in the blood [2]: 12,760 cpm
blood/injected cpm (%), 15′ [1]: 15.90% and 15.61%
blood/injected cpm (%), 30′ [1]: 15.00% and 12.67%
blood/injected cpm (%), 60′ [1]: 11.62% and 8.75%
brain, cpm recovered [1]: 95 cpm and 110 cpm
epididimal fat, cpm recovered [1]: 321 cpm and 288 cpm
kidney, cpm recovered [1]: 2,564 cpm and 3,799 cpm
liver, cpm recovered [1]: 2,994 cpm and 2,786 cpm
lungs, cpm recovered [1]: 476 cpm and 377 cpm
recovered cpm/injected cpm (%) [1]: 28.53% and 31.97%
urine, cpm recovered [1]: 14,749 cpm and 21,747 cpm
blood/injected cpm (%), 15′ [2]: 15.75%
blood/injected cpm (%), 30′ [2]: 13.84%
blood/injected cpm (%), 60′ [2]: 10.18%
brain, cpm recovered [2]: 103 cpm
epididimal fat, cpm recovered [2]: 305 cpm
kidney, cpm recovered [2]: 3,182 cpm
liver, cpm recovered [2]: 2,890 cpm
lungs, cpm recovered [2]: 427 cpm
recovered cpm/injected cpm (%) [2]: 30.25%
urine, cpm recovered [2]: 18,248 cpm
recovered cpm/mouse [3]: 93,914 cpm and 68,380 cpm and 89,969 cpm and 90,520 cpm
recovered cpm/mouse [4]: 85,446 cpm
blood 15′, total cpm in the blood [3]: 40,600 cpm and 39,440 cpm and 51,920 cpm and 36,200 cpm
blood 30′, total cpm in the blood [3]: 37,440 cpm and 31,720 cpm and 48,440 cpm and 34,720 cpm
blood 60′, total cpm in the blood [3]: 33,880 cpm and 23,080 cpm and 40,840 cpm and 30,200 cpm
blood 15′, total cpm in the blood [4]: 42,040 cpm
blood 30′, total cpm in the blood [4]: 38,080 cpm
blood 60′, total cpm in the blood [4]: 32,000 cpm
blood/injected cpm (%), 15′ [3]: 20.72% and 20.13% and 26.50% and 18.48%
blood/injected cpm (%), 30′ [3]: 19.11% and 16.19% and 24.73% and 17.72%
blood/injected cpm (%), 60′ [3]: 17.29% and 11.78% and 20.85% and 15.42%
brain, cpm recovered [3]: 206 cpm and 176 cpm and 284 cpm and 173 cpm
epididimal fat, cpm recovered [3]: 1,081 cpm and 805 cpm and 903 cpm and 846 cpm
kidney, cpm recovered [3]: 9,513 cpm and 7,878 cpm and 10,661 cpm and 8,929 cpm
liver, cpm recovered [3]: 8,194 cpm and 5,154 cpm and 9,615 cpm and 8,708 cpm
lungs, cpm recovered [3]: 1,048 cpm and 636 cpm and 1,221 cpm and 1,303 cpm
recovered cpm/injected cpm (%) [3]: 47.94% and 34.91% and 45.42% and 46.21%
urine, cpm recovered [3]: 39,992 cpm and 30,651 cpm and 25,445 cpm and 40,361 cpm
blood/injected cpm (%), 15′ [4]: 21.46%
blood/injected cpm (%), 30′ [4]: 19.44%
blood/injected cpm (%), 60′ [4]: 16.33%
brain, cpm recovered [4]: 210 cpm
epididimal fat, cpm recovered [4]: 909 cpm
kidney, cpm recovered [4]: 9,245 cpm
liver, cpm recovered [4]: 7,918 cpm
lungs, cpm recovered [4]: 1,052 cpm
recovered cpm/injected cpm (%) [4]: 43.62%
urine, cpm recovered [4]: 34,112 cpm
recovered cpm/mouse [5]: 78,079 cpm and 67,291 cpm and 64,828 cpm and 79,362 cpm
recovered cpm/mouse [6]: 72,390 cpm
blood 5′, total cpm in the blood [5]: 29,400 cpm and 29,120 cpm and 34,240 cpm and 32,920 cpm
blood 10′, total cpm in the blood [5]: 26,680 cpm and 32,320 cpm and 28,200 cpm and 27,760 cpm
blood 20′, total cpm in the blood [5]: 20,280 cpm and 30,960 cpm and 27,240 cpm and 21,800 cpm
blood 60′, total cpm in the blood [5]: 11,880 cpm and 22,840 cpm and 16,280 cpm and 14,440 cpm
blood 5′, total cpm in the blood [6]: 31,420 cpm
blood 10′, total cpm in the blood [6]: 28,740 cpm
blood 20′, total cpm in the blood [6]: 25,070 cpm
blood 60′, total cpm in the blood [6]: 16,360 cpm
blood/injected cpm (%), 5′ [5]: 20.56% and 20.36% and 23.94% and 23.02%
blood/injected cpm (%), 10′ [5]: 18.66% and 22.60% and 19.72% and 19.41%
blood/injected cpm (%), 20′ [5]: 14.18% and 21.65% and 19.05% and 15.24%
blood/injected cpm (%), 60′ [5]: 8.31% and 15.97% and 11.38% and 10.10%
brain, cpm recovered [5]: 76 cpm and 106 cpm and 94 cpm and 74 cpm
epididimal fat, cpm recovered [5]: 375 cpm and 591 cpm and 462 cpm and 465 cpm
kidney, cpm recovered [5]: 2,397 cpm and 4,407 cpm and 5,018 cpm and 5,772 cpm
liver, cpm recovered [5]: 3,516 cpm and 6,546 cpm and 6,561 cpm and 4,807 cpm
lungs, cpm recovered [5]: 393 cpm and 643 cpm and 582 cpm and 533 cpm
recovered cpm/injected cpm (%) [5]: 54.60% and 47.06% and 45.33% and 55.50%
urine, cpm recovered [5]: 59,442 cpm and 32,158 cpm and 35,831 cpm and 53,271 cpm
blood/injected cpm (%), 5′ [6]: 21.97%
blood/injected cpm (%), 10′ [6]: 20.10%
blood/injected cpm (%), 20′ [6]: 17.53%
blood/injected cpm (%), 60′ [6]: 11.44%
brain, cpm recovered [6]: 88 cpm
epididimal fat, cpm recovered [6]: 473 cpm
kidney, cpm recovered [6]: 4,399 cpm
liver, cpm recovered [6]: 5,358 cpm
lungs, cpm recovered [6]: 538 cpm
recovered cpm/injected cpm (%) [6]: 50.62%
urine, cpm recovered [6]: 45,176 cpm
